# ± gives the standard deviation of the averaged measurements.
# System: VchCAST RNA-guided transposition machinery (E. coli BL21(DE3) host, lacZ target)
# Test: relative integration efficiency (T-RL orientation) vs wild-type transposon end (log2 (normalized fold change)); transposon end mutated: right end (5 bp flank + 75 bp right end); higher = more efficient transposition
# Description: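 Pooled, barcoded VchCAST (Tn6677) mini-transposon donor libraries; each variable transposon-end sequence sits in a fixed pDonor mini-transposon context (10-bp barcode and cargo not included). Left- or right-end libraries were co-transformed with pEffector (TniQ-Cascade, TnsABC, lacZ crRNA, T7, 0.1 mM IPTG) into E. coli BL21(DE3) and grown 18 h at 37 C. T-LR and T-RL junction amplicons were sequenced; output/input barcode fold change was normalised to the mean of four wild-type barcodes and log2-transformed. Two biological replicates; zero-count/undetected variants carry floor values (-10 / -15), censored here. Barcode uncoupling by PCR recombination adds noise.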
row,Sequence,relative integration efficiency (log2)
1,ACATTTGTTGATACAACCATACCCGTATAATTACACCCATACCGGTATAATTATCACACCCATACCGGTATATTGCCTCTGATCATAGTCAGACCAACATTGCTACGACCCGTATTCGCACCGACAC,-8.04 ± 1.3
2,ACATTTGTAAAAAAAACCATACGTTGATTTTACGAAACCATACGCTGAAATAATCACACCCATAAATTGATATTGCCTCTGATCATAGTCAGACCAACATTGCTACGACCCGTATTCGCACCGACAC,-7.11 ± 0.15
3,ACATTGGTTCATACAACCATAAAATGATAATTACACCCATAAATGGATCATTATCACACCCAATTTAACTATAACGCTCTGATCATAGTCAGACCAACATTGCTACGACCCGTATTCGCACCGACAC,-7.4 ± 0.26
4,ACATTTGTTGCAACCATAAAATGATAATTACACCCATAAATTGATAATTATCACACCCATAAATTGATATTGCCTCTGATCATAGTCAGACCAACATTGCTACGACCCGTATTCGCACCGACACTGA,-7.1 ± 0.91
5,ACATTAGTCGATACAACCATAAAATGATAATTACACCCATAAATTCATAATTATCACACCCAATTTAACTATAACGCTCTGATCATAGTCAGACCAACATTGCTACGACCCGTATTCGCACCGACAC,-7.36 ± 0.82
6,ACATTTGTTGATACAACCATAAAATGATAATTAATAATTATTTATAATCAGCAACACCCATAAATTGATAATTATCACACCCATAAATTGATATTGCCTCTGATCATAGTCAGACCAACATTGCTAC,-3.61 ± 0.38
7,ACATTAGTTCATACAACCATAAAATGATAATTACACCCATAAATTGATAATTATCACACCCAATTTAACTATAACGCTCTGATCATAGTCAGACCAACATTGCTACGACCCGTATTCGCACCGACAC,-7.98 ± 0.089
8,ACATTAGTGGATACAACCATAAAATGATAATTACACCCATAAATGGATCATTATCACACCCAATTTAACTATAACGCTCTGATCATAGTCAGACCAACATTGCTACGACCCGTATTCGCACCGACAC,-6.91 ± 0.47
9,ACATTTGTTGATACAACACGCCCCGTCGCCGGCACAAACGCCCGGTCGCCGGCGACACAAACGCCCGGTCGCGGTAAGAGGATCATAGTCAGACCAACATTGCTACGACCCGTATTCGCACCGACAC,-6.42 ± 0.17
10,ACATTTGTTGATACAACCATAAAATGATAATTAATAATTATTTATAATCAGCAACTTAACCACAAAACACCCATAAATTGATAATTAACAAACACCCATAAATTGATATTGCCTCTGATCATAGTCA,-5.35 ± 0.69
11,ACATTTGTTGATACAACCATACCCGGATAATTACACCCATACCGGGATAATTATCACACCCATACCGGGATATTGCCTCTGATCATAGTCAGACCAACATTGCTACGACCCGTATTCGCACCGACAC,-6.7 ± 0.28
12,ACATTTGTTAATAAAACCATACGTTGATTTTACGAAACCATACGCTGAAATAATCACACCCATAAATTGATATTGCCTCTGATCATAGTCAGACCAACATTGCTACGACCCGTATTCGCACCGACAC,-6.57 ± 0.26
13,ACATTTGTTGATAGTTGGTATTTTACTATTAATCACCCATAAATTGATAATTATCACACCCATAAATTGATATTGCCTCTGATCATAGTCAGACCAACATTGCTACGACCCGTATTCGCACCGACAC,-7.24 ± 1
14,ACATTTGTTGATATAATTATCATTTTATGGTTGCAACCATAAAATGATAATTATCATAATTATCATTTTATGGTTGCTCTGATCATAGTCAGACCAACATTGCTACGACCCGTATTCGCACCGACAC,-2.78 ± 0.3
15,ACATTTCAACATACAACCATAAAATGATAATTACACCCATAAATTGATAATTATCACACCCATAAATTGATATTGCCTCTGATCATAGTCAGACCAACATTGCTACGACCCGTATTCGCACCGACAC,-6.21 ± 0.12
16,ACATTTGTAAAAAAAACCATACGTTGATTTTACGAAACCATACGCTGAAATAATCACAACCATACCTTGAAATTGCCTCTGATCATAGTCAGACCAACATTGCTACGACCCGTATTCGCACCGACAC,-7.16 ± 0.43
17,ACATTTGTAAAAAAAACCATACGTTGATTTTACGAAACCATACGCTGAAATAAAAACAACCATACCTTGAAATTGCTTATGATCATAGTCAGACCAACATTGCTACGACCCGTATTCGCACCGACAC,-8.13 ± 1.3
18,ACATAACATGATACAACCATAAAATGATAATTACACCCATAAATTGATAATTATCACACCCATAAATTGATATTGCCTCTGATCATAGTCAGACCAACATTGCTACGACCCGTATTCGCACCGACAC,-5.71 ± 0.74
19,ACATTGGTCGATACAACCATAAAATGATAATTACACCCATAAATGGATAATTATCACACCCAATTTAACTATAACGCTCTGATCATAGTCAGACCAACATTGCTACGACCCGTATTCGCACCGACAC,-7.16 ± 0.89

row,Sequence,relative integration efficiency (log2)
1,ACATTTGTTGATACAACCATCCCCGTCGCCGGCACAAACGCCCGGTCGCCGGCGACACAAACGCCCGGTCGCGGTAAGAGGATCATAGTCAGACCAACATTGCTACGACCCGTATTCGCACCGACAC,-7.485 ± 0.063
2,ACAAAACTTGATACAACCATAAAATGATAATTACACCCATAAATTGATAATTATCACACCCATAAATTGATATTGCCTCTGATCATAGTCAGACCAACATTGCTACGACCCGTATTCGCACCGACAC,-6.59 ± 0.45
3,ACATTAGTTCATACAACCATAAAATGATAATTACACCCATAAATTGATCATTATCACACCCAATTTAACTATAACGCTCTGATCATAGTCAGACCAACATTGCTACGACCCGTATTCGCACCGACAC,-7.24 ± 0.69
4,CAAAATGTTGATAAAACCATACGTTGATTTTACGAAACCATACGCTGAAATAAAAACAACCATACCTTGAAATTGCTTATAAAGTGTACAACACTTGAGAAAGTTTACTACAGGTATGCACCGACAC,-9.08 ± 1.1
5,ACATTAGTTCATACAACCATAAAATGATAATTACACCCATAAATTCATAATTATCACACCCAATTTAACTATAACGCTCTGATCATAGTCAGACCAACATTGCTACGACCCGTATTCGCACCGACAC,-6.79 ± 0.48
6,ACATTTGTTGATATGTCAACCATAAAATGATAATTACACCCATAAATTGATAATTATCACACCCATAAATTGATATTGCCTCTGATCATAGTCAGACCAACATTGCTACGACCCGTATTCGCACCGA,-2.13 ± 0.23
7,ACATTTGTAAAAAAAACCATACGTTGATTTTACGAAACCATACGCTGAAATAATCACAACCATAAATTGATATTGCCTCTGATCATAGTCAGACCAACATTGCTACGACCCGTATTCGCACCGACAC,-6.87 ± 0.53
8,ACATTTGAACTTACAACCATAAAATGATAATTACACCCATAAATTGATAATTATCACACCCATAAATTGATATTGCCTCTGATCATAGTCAGACCAACATTGCTACGACCCGTATTCGCACCGACAC,-5.07 ± 0.78
9,ACATTTGTTGATACAACCATATTTACATAATTACACCCATATTAACATAATTATCACACCCATATTAACATATTGCCTCTGATCATAGTCAGACCAACATTGCTACGACCCGTATTCGCACCGACAC,-7.03 ± 0.43
10,ACATTACTTGATACAACCATAAAATGATAATTACACCCATAAATTGATAATTATCACACCCATAAATTGATATTGCCTCTGATCATAGTCAGACCAACATTGCTACGACCCGTATTCGCACCGACAC,-6.45 ± 0.27
11,ACATGGTGTGATACAACCATAAAATGATAATTACACCCATAAATTGATAATTATCACACCCATAAATTGATATTGCCTCTGATCATAGTCAGACCAACATTGCTACGACCCGTATTCGCACCGACAC,-6.87 ± 0.18
12,ACATTGGTCGATACAACCATAAAATGATAATTACACCCATAAATGGATCATTATCACACCCAATTTAACTATAACGCTCTGATCATAGTCAGACCAACATTGCTACGACCCGTATTCGCACCGACAC,-7.2 ± 0.28
13,ACATTTGTTGATACAACCCGCCCCGTCGCCGGCACAAACGCCCGGTCGCCGGCGACACAAACGCCCGGTCGCGGTAAGAGGATCATAGTCAGACCAACATTGCTACGACCCGTATTCGCACCGACAC,-8.51 ± 0.73
14,ACATTGGTGGATACAACCATAAAATGATAATTACACCCATAAATTGATAATTATCACACCCAATTTAACTATAACGCTCTGATCATAGTCAGACCAACATTGCTACGACCCGTATTCGCACCGACAC,-6.88 ± 0.39
15,ACAGGGTTTGATACAACCATAAAATGATAATTACACCCATAAATTGATAATTATCACACCCATAAATTGATATTGCCTCTGATCATAGTCAGACCAACATTGCTACGACCCGTATTCGCACCGACAC,-7.26 ± 0.17
16,ACATTTGTTGATAACCAACGCCCCGTCGCCGGCACAAACGCCCGGTCGCCGGCGACACAAACGCCCGGTCGCGGTAAGAGGATCATAGTCAGACCAACATTGCTACGACCCGTATTCGCACCGACAC,-6.24 ± 0.19
17,ACATTTGTTGATAACCAACGCCCCGTCGCCGGCCACCCATAAATTGATAATTATCACACCCATAAATTGATATTGCCTCTGATCATAGTCAGACCAACATTGCTACGACCCGTATTCGCACCGACAC,-7.56 ± 0.64
18,ACATTGGTTCATACAACCATAAAATGATAATTACACCCATAAATTGATCATTATCACACCCAATTTAACTATAACGCTCTGATCATAGTCAGACCAACATTGCTACGACCCGTATTCGCACCGACAC,-7.14 ± 0.11
19,ACATTTGTTGATATAATTATCATTTTATGGTTGTAATTATCATTTTATGGTTGTCACAACCATAAAATGATAATTACTCTGATCATAGTCAGACCAACATTGCTACGACCCGTATTCGCACCGACAC,-6.264 ± 0.019

# From the supplement of paper PMC10201428
